# Patent publication US5919635A (ZymoGenetics, Inc., priority 1995, dated 1999)
# Assays:
# rat glucagon receptor = molecular target: T1, rat glucagon receptor (Rattus norvegicus, UniProt P30082); assay: cAMP response of clone KZ6/rGR-DHFR-2 by cAMP [^125 I] scintillation proximity assay; assay type: cell-based; conditions: 10 minutes at 37° C., 10 μM IBMX, read-out: ED50 (the source's name)
# T1 construct: pLJ4 contained an approximately 2 kb insert encoding a 485 amino acid protein; expressed in transfected cells; host or cells: BHK/KZ6-19-46 (BHK570 with CRE-luciferase plasmid KZ6), clone KZ6/rGR-DHFR-2
# T1 sequence (P30082 27-485): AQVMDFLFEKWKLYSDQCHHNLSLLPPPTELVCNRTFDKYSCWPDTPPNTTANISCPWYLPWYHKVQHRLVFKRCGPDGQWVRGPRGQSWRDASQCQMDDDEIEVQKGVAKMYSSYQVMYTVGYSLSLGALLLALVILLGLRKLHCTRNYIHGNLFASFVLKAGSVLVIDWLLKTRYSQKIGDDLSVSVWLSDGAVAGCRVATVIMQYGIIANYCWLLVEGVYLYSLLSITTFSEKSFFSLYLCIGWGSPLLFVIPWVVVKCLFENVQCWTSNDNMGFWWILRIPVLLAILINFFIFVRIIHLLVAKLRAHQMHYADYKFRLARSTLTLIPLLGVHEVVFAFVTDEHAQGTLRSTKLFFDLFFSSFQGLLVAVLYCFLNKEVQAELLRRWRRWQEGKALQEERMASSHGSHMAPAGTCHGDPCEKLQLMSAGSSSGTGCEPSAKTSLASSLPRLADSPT
# Method: Briefly, 100 μl of 2×10^5 cells per ml KZ6/rGR-DHFR-2 cells were plated into the wells of a multi-well culture dish and grown overnight in selection media.
# The cells were incubated with the agonists for 10 minutes at 37° C., 5% CO2. Following incubation, the cells were lysed by the addition of 200 μl of boiling water to each well. After 15 minutes the supernatants were collected and diluted 1:5 or 1:40 in acetate buffer (cAMP [^125 I] Scintillation Proximity Assay System (Amersham)). Samples were acetylated using triethylamine and acetic anhydride according to the protocol provided by the manufacturer.
# A 100 μl aliquot of each acetylated sample was combined with 75 μl of ^125 I-cAMP, 75 μl anti-succinyl cAMP antisera and 75 μl of donkey anti-rabbit IgG coupled SPA beads (all assay solutions provided in the cAMP [^125 I] Scintillation Proximity Assay System (Amersham)) in a well of an LKB T-tray. The trays were sealed and incubated overnight with continuous shaking on a rotary platform shaker at 200 rpm. The samples were counted in a 1205 BETAPLATE liquid scintillation counter (Pharmacia LKB Instruments Inc., Gaithersburg, Md.). A standard curve of 2-128 fmol acetylated cAMP was also run. Total ^125 I-cAMP bound and non-specific binding were also determined.
# [1] = molecular target: T2, rat liver membranes (glucagon receptor) (Rattus norvegicus, UniProt P30082); assay: Competition binding / Scatchard analysis with ^125 I-glucagon on rat liver membranes; conditions: 30 minutes at 30° C., read-out: apparent Kd
# T2 construct: Two batches of liver membranes were each prepared from approximately 80 gm of liver; from tissue; host or cells: rat liver membranes
# T2 sequence (P30082 27-485): as above
# Method: Membranes from the pLJ4 BHK transfectants were compared with rat liver membrane preparations for the ability to bind ^125 I-glucagon. Membranes were prepared essentially described by Rodbell et al. (J. Biol Chem. 246:1861-1871, 1971, which is incorporated by reference herein in its entirety). Two batches of liver membranes were each prepared from approximately 80 gm of liver from 12 to 16 decapitated young female rats. The livers were removed quickly and placed into an iced beaker. The livers were separated into ten-gram portions. The portions were minced with scissors, and connective tissue was removed during the mincing procedure. The portions were separately homogenized in a Dounce homogenizer. […] The concentration of the solution was adjusted to 44.0%+/-0.1% using 69% sucrose or water as measured by a refractometer (Bausch & Lomb, Rochester, N.Y.). […]
# The supernatant was carefully decanted and discarded. […] The absorbance was read in 1 cm cuvettes to determine protein concentration. Protein concentration was determined using the formula: [formula] […]
# To each tube 100 μl of 2× binding buffer; 20 μl of ^125 I-glucagon (Amersham); 20 μl of 1 mM NaHCO3; 20 μl 10 mM HOAc, 0.5% BSA (Novo Nordisk N/A, Bagsvaerd, Denmark); and 40 μl of distilled water were added. […] The supernatants from each sample were aspirated, and the pellets were counted.
substance,measurement,setting,value
glucagon: 29 amino acid hormone produced by the alpha cells of pancreatic islets; human glucagon (Sigma),EC50,rat glucagon receptor,0.25 nM
same,Kd,[1],49 nM
